# Experimental data reported in patent US20200148732A1 (UNIVERSITY OF COPENHAGEN, published 2020).
# T1: GFP-TONSL D559A (Homo sapiens, UniProt Q96HA7 1-1378)
# T1 construct: also called TONSL D559A / GFP; not shown: N-terminal GFP tag
# T1 sequence: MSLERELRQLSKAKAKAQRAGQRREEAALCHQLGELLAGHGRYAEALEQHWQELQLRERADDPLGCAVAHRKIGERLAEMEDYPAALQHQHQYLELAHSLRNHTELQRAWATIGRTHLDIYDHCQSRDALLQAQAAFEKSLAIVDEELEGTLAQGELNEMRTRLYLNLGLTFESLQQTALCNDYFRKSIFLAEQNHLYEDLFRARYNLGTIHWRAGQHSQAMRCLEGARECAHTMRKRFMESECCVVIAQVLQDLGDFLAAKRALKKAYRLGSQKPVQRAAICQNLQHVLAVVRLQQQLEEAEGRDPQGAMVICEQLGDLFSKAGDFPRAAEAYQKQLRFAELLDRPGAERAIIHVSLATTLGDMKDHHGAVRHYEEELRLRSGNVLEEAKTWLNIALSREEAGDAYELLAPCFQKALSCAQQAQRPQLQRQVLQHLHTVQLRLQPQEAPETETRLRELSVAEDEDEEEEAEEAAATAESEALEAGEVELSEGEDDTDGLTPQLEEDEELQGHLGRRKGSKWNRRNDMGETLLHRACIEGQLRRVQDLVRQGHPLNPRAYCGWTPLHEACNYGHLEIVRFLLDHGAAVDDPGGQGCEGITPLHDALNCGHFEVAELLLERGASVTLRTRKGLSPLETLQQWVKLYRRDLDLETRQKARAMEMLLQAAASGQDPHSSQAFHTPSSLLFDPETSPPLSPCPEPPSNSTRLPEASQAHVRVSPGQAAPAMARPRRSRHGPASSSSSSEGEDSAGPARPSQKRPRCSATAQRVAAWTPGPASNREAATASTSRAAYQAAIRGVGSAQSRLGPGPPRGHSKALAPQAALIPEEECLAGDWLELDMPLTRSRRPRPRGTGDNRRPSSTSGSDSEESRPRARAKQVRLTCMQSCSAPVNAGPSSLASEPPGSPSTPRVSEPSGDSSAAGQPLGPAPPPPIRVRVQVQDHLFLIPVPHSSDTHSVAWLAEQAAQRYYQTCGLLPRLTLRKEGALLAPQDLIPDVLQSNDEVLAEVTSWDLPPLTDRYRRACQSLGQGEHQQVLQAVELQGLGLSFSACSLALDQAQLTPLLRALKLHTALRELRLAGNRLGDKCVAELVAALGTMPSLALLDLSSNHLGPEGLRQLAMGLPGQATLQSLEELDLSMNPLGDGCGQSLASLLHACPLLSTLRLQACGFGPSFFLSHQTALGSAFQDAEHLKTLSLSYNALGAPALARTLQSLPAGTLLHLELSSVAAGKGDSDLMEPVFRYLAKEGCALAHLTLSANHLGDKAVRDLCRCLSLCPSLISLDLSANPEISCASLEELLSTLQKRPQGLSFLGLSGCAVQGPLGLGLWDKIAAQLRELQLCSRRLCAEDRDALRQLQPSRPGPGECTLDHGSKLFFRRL
# T2: GFP-TONSL wild type (full length) (Homo sapiens, UniProt Q96HA7 1-1378)
# T2 construct: Expressed in U-2-OS or HeLa S3 cells; assayed in cell extracts; also called GFP-TONSL WT; TONSL WT / GFP; not shown: N-terminal GFP tag
# T2 sequence: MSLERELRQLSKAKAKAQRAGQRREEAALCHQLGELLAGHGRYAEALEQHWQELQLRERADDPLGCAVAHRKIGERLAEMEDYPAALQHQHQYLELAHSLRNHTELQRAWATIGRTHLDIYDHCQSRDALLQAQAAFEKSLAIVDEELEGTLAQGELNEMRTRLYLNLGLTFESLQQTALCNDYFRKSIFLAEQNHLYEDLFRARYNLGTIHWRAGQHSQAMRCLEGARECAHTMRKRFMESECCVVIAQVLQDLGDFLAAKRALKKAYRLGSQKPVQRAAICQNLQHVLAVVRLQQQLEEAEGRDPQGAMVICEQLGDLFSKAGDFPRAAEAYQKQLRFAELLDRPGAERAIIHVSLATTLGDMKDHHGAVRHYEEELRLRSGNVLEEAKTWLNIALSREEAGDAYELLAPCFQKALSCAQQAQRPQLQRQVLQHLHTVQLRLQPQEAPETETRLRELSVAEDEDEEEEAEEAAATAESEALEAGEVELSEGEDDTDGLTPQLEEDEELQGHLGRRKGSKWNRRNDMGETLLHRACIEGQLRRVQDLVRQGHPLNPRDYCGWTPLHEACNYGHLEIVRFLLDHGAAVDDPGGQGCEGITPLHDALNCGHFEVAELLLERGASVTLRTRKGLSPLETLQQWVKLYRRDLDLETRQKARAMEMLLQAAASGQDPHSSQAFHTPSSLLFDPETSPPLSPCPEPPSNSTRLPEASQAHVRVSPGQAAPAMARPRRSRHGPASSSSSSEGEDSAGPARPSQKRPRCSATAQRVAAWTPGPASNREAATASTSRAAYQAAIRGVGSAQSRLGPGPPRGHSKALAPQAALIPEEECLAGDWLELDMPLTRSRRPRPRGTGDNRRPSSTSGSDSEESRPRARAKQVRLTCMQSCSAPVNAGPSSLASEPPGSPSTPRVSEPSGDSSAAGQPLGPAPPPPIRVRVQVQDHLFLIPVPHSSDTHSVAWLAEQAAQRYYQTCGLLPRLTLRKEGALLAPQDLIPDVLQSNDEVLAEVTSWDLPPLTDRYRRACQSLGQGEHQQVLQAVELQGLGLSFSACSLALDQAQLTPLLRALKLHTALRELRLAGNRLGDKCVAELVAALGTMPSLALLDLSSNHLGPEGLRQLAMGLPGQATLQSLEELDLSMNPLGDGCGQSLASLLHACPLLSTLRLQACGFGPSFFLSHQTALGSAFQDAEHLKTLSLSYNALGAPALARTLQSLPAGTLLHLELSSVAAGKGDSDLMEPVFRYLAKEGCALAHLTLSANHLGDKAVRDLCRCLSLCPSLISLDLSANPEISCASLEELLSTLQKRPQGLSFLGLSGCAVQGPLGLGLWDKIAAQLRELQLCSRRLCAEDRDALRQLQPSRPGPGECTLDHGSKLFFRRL
# How the values were obtained:
# GFP-TONSL D559A = molecular target: T1, GFP-TONSL D559A; experiment: GFP immunoprecipitation of GFP-TONSL from transfected HeLa S3 cells, western blot (co-IP; association may be indirect)
# [1] = molecular target: T2, GFP-TONSL wild type (full length); experiment: as above
binder,measurement,setting,value
"MMS22L (endogenous, in cell extracts) (other, UniProt Q6ZRQ5 1-1243, looked up) MENCSAASTFLTDSLELELGTEWCKPPYFSCAVDNRGGGKHFSGESYLCSGALKRLILNLDPLPTNFEEDTLEIFGIQWVTETALVNSSRELFHLFRQQLYNLETLLQSSCDFGKVSTLHCKADNIRQQCVLFLHYVKVFIFRYLKVQNAESHVPVHPYEALEAQLPSVLIDELHGLLLYIGHLSELPSVNIGAFVNQNQIKLFPPSWHLLHLHLDIHWLVLEILYMLGEKLKQVVYGHQFMNLASDNLTNISLFEEHCETLLCDLISLSLNRYDKVRSSESLMSDQCPCLCIKELWVLLIHLLDHRSKWFVSESFWNWLNKLLKTLLEKSSDRRRSSMPVIQSRDPLGFSWWIITHVASFYKFDRHGVPDEMRKVESNWNFVEELLKKSISVQGVILEEQLRMYLHCCLTLCDFWEPNIAIVTILWEYYSKNLNSSFSISWLPFKGLANTMKSPLSMLEMVKTCCCDKQDQELYKSSSSYTIFLCILAKVVKKAMKSNGPHPWKQVKGRIYSKFHQKRMEELTEVGLQNFFSLFLLLAAVAEVEDVASHVLDLLNFLKPAFVTSQRALIWKGHMAFLLMYAQKNLDIGVLAEKFSCAFREKAKEFLVSKNEEMVQRQTIWTLLSIYIDGVQEVFETSYCLYPSHEKLLNDGFSMLLRACRESELRTVLSFLQAVLARIRSMHQQLCQELQRDNVDLFVQSSLSAKERHLAAVASALWRHFFSFLKSQRMSQVVPFSQLADAAADFTLLAMDMPSTAPSDFQPQPVISIIQLFGWDDIICPQVVARYLSHVLQNSTLCEALSHSGYVSFQALTVRSWIRCVLQMYIKNLSGPDDLLIDKNLEEAVEKEYMKQLVKLTRLLFNLSEVKSIFSKAQVEYLSISEDPKKALVRFFEAVGVTYGNVQTLSDKSAMVTKSLEYLGEVLKYIKPYLGKKVFSAGLQLTYGMMGILVKSWAQIFATSKAQKLLFRIIDCLLLPHAVLQQEKELPAPMLSAIQKSLPLYLQGMCIVCCQSQNPNAYLNQLLGNVIEQYIGRFLPASPYVSDLGQHPVLLALRNTATIPPISSLKKCIVQVIRKSYLEYKGSSPPPRLASILAFILQLFKETNTDIYEVELLLPGILKCLVLVSEPQVKRLATENLQYMVKACQVGSEEEPSSQLTSVFRQFIQDYGMRYYYQVYSILETVATLDQQVVIHLISTLTQSLKDSEQKWGLGRNIAQREAYSKLLSHLGQMGQDEMQRLENDNT",binding result,GFP-TONSL D559A,binds
same,binding result,[1],binds
